Authentic Virus Neutralization IC50 data for one substance are collected here from US20250289871A1.

Common to all, as to experiment: cell-based or functional assay
For assay [1], the target named is SARS-CoV-2 BA.2.12.1 spike protein (authentic virus) (SARS-CoV-2) (UniProt P0DTC2).
For assay [2], the target named is SARS-CoV-2 Alpha spike protein (authentic virus) (SARS-CoV-2) (UniProt P0DTC2).
The target of assay [3] is SARS-CoV-2 BA.5 spike protein (authentic virus) (SARS-CoV-2) (UniProt P0DTC2).
For assay [4], the target named is SARS-CoV-2 BA.2 spike protein (authentic virus) (SARS-CoV-2) (UniProt P0DTC2).
Assay [5] addresses SARS-CoV-2 BA.1.1 spike protein (authentic virus) (SARS-CoV-2) (UniProt P0DTC2).
Assay [6] deals with SARS-CoV-2 BA.1 spike protein (authentic virus) (SARS-CoV-2) (UniProt P0DTC2).

cilgavimab (AZD1061) (antibody): the Authentic Virus Neutralization IC50 in assay [1] is 29 ng/mL; in assay [2] it was 6 ng/mL; in assay [3], 131 ng/mL; in assay [4], 21 ng/mL; in assay [5], over 10000 ng/mL; in assay [6] it was 3780 ng/mL.
